Results on 1 molecule are retold here after patent publication US20080249606A1 (published 2008).

The target in assay [1] is T1, Blocking Reagent (catalogue number 11112589001, Roche Diagnostics) immobilized in ELISA wells.
T1 construct: One molecule for all four plate types; The plate is named under assay in each row
Kind of assay: ELISA, Blocking Reagent on Costar 2595 plate. Background: An ELISA detects its analyte on a solid surface through an enzyme-linked reagent.

The target in assay [2] is T1, Blocking Reagent (catalogue number …). Kind of assay: ELISA, Blocking Reagent on Costar 9102 plate, tPA concentration series in PBS pH 7.3 with 10 mM εACA.
The target is the same in assay [3]. Kind of assay: ELISA, Blocking Reagent on Nunc Immobilizer Amino plate.
In assay [4] the target is T2, BSA incubated overnight with dextran sulphate 500,000 Da (DXS500k) (bovine, UniProt P02769 25-607).
T2 construct: Same protein as m3, misfolded by contact with DXS500k (a non-protein polymer present in the mixture); also called BSA with DXS500k; DXS500k-protein mixture
T2 sequence (P02769 25-607 limits assumed): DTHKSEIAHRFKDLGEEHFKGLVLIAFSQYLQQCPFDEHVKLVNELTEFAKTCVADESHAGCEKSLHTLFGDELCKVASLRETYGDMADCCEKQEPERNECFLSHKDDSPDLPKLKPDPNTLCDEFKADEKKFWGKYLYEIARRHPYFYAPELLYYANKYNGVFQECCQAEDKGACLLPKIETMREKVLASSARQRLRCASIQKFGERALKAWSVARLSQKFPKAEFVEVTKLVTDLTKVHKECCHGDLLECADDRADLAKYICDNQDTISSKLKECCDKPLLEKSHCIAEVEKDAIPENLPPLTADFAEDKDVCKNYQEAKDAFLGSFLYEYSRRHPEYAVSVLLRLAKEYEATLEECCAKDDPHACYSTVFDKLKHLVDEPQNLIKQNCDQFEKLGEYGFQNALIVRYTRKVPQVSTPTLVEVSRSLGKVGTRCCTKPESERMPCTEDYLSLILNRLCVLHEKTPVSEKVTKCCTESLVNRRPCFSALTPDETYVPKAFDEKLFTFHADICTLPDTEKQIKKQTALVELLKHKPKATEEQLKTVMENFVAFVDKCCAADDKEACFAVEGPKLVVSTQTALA
Nature of the assay: ELISA, protein/DXS500k mixture immobilized on Greiner Microlon plate, tPA in 10 mM εACA, detection with antibody 374b.

In assay [5] the target is T1, Blocking Reagent (catalogue number …). Nature of the assay: ELISA, Blocking Reagent on Greiner Microlon high-binding plate.
Assay [6] has the same target. Kind of assay: ELISA, Blocking Reagent on Costar 9102 plate (second experiment, FIG. 2M).

B1: tissue-type plasminogen activator (tPA, Actilyse, Boehringer-Ingelheim) (enzyme, UniProt P00750 36-562, looked up)
chain: SYQVICRDEKTQMIYQQHQSWLRPVLRSNRVEYCWCNSGRAQCHSVPVKSCSEPRCFNGGTCQQALYFSDFVCQCPEGFAGKCCEIDTRATCYEDQGISYRGTWSTAESGAECTNWNSSALAQKPYSGRRPDAIRLGLGNHNYCRNPDRDSKPWCYVFKAGKYSSEFCSTPACSEGNSDCYFGNGSAYRGTHSLTESGASCLPWNSMILIGKVYTAQNPSAQALGLGKHNYCRNPDGDAKPWCHVLKNRRLTWEYCDVPSCSTCGLRQYSQPQFRIKGGLFADIASHPWQAAIFAKHRRSPGERFLCGGILISSCWILSAAHCFQERFPPHHLTVILGRTYRVVPGEEEQKFEVEKYIVHKEFDDDTYDNDIALLQLKSDSSRCAQESSVVRTVCLPPADLQLPDWTECELSGYGKHEALSPFYSERLKEAHVRLYPSSRCTSQHLLNRTVTDNMLCAGDTRSGGPQANLHDACQGDSGGPLVCLNDGRMTLVGIISWGLGCGQKDVPGVYTKVTNYLDWIRDNMRP
notes: Bought drug product
As usually defined, the Kd is a measure of binding affinity in units of concentration. Higher therefore signals lower affinity. Turning to B1, the dissociation constant (Kd) in assay [1] was 30 nM; in assay [2], 0.6 nM; in assay [3], 39 nM; in assay [5], 23000 nM; in assay [6], approximately 0.5 nM. Also, in assay [4], the “factor of increase of tPA binding against the protein incubated with buffer only” value turned out to be 1.3 fold.
